Values of other authors, collected in article PMC2666074 (Biochemistry, 2008).

Tested on: β-catenin in HEK293 cells
Conditions: no detectable levels of S100A6, ref Matsuzawa and Reed (2001)

B1: Siah-1: Siah-1 overexpressed by transient transfection of pSiah-1-FLAG (protein, UniProt Q8IUQ4 1-282, looked up)
E3 ubiquitin-protein ligase …: MSRQTATALPTGTSKCPPSQRVPALTGTTASNNDLASLFECPVCFDYVLPPILQCQSGHLVCSNCRPKLTCCPTCRGPLGSIRNLAMEKVANSVLFPCKYASSGCEITLPHTEKADHEELCEFRPYSCPCPGASCKWQGSLDAVMPHLMHQHKSITTLQGEDIVFLATDINLPGAVDWVMMQSCFGFHFMLVLEKQEKYDGHQQFFAIVQLIGTRKQAENFAYRLELNGHRRRLTWEATPRSIHEGIATAIMNSDCLVFDTSIAQLFAENGNLGINVTISMC
modifications: FLAG tag
  level of β-catenin upon Siah-1 transfection, in words: reduced levels of β-catenin
